Assays:
chicken IgY (chicken) [1] = assay: BLI; Octet, SAX (streptavidin) biosensors; Fabs at multiple concentrations; KD from a kinetic 1:1 model, global fits (R^2 > 0.98); as described previously (ref. 7)
chicken IgY (chicken) [2] = assay: BLI; Octet, SAX (streptavidin) biosensors; recombinant Fabs against IgY; KD from a kinetic 1:1 model, global fit over multiple concentrations (partial fits averaged for 3 low-affinity Fabs)

Row | Binder | Kd (chicken IgY (chicken) [1]) [nM] | Kd (chicken IgY (chicken) [2]) [nM] | koff (chicken IgY (chicken) [2]) [s⁻¹] | kon (chicken IgY (chicken) [2]) [M⁻¹ s⁻¹]
1 | Fab fragment of a high-affinity variant of clone 2.1 (2.1^hi) (Fab, V domains shown) VH: EVQLQESGPSLVKPSQTLSLTCSVTGASITSGYWNWIRKFPGNRLEYMGYISYSGGTYYNPSLKSRISITRDTSKNQYYLQLNSVTTEDTATYYCARDFDVWGAGTTVTVSS VL: DIVMTQSQKFMSTSVGDRVSVTCKASQNVGTNVGWFQQKPGQSPKSLIYSASYRYSGVPDRFTGSGSGTDFTLTISNVQSEDLAEYFCHQYYSYPLTFGSGTKLEIK | 0.062 |  |  | 
2 | clone 2.1 Fab CB_05 (clonal burst) (Fab, V domains shown) VH: EVQLQESGPSLVKPSQTLSLTCSVTGDSITSGYWNWIRKFPGNKLEYMGYISYSGSTYYNPSLKSRISITRDTSKNQYYLQLNSVTTEDTATYYCGRDFDVWGAGTTVTVSS VL: DIVMTQSQKFMSTSVGDRVSVTCKASQNVGTNVAWYQQKPGQSPKALIYSASYRYSGVPDRFTGSGSGTDFTLTISNVQSEDLAEYFCQQYNSYPLTFGSGTKLEIK |  | 6.76 | 0.00149 | 221000
3 | clone 2.1 Fab CB_07 (clonal burst) (Fab, V domains shown) VH: EVQLQESGPSLVKPSQTLSLTCSVTGDSITSGYWNWIRKFPGNKLEYMGYISYSGSTYYNPSLKSRISITRDTSKNQYYLQLNSVTTEDTATYYCGRDFDVWGAGTTVTVSS VL: DIVMTQSQKFMSTSVGDRVSVTCKASQNVGTNVAWYQQKPGQSPKALIYSASYRYSGVPDRFTGSGSGTDFTLTISNVQSEDLAEYFCQQYKSYPLTFGSGTKLEIK |  | 1.34 | 0.000349 | 261000
4 | clone 2.1 Fab CB_10 (clonal burst) (Fab, V domains shown) VH: EVQLQESGPSLVKPSQTLSLTCSVTGDSITSGYWNWIRKFPGNKLEYMGYISYSGSTYYNPSLKSRISITRDTSKNQYYLQLNSVTTEDTATYYCGRDFDVWGAGTTVTVSS VL: DIVMTQSQKFMSTSVGDRVSVTCKASQNVGTNVGWYQQKPGQSPKALIYSASYRYSGVPDRFTGSGSGTDFTLTISNVQSEDLAEYFCQQYNRYPLTFGSGTKLEIK |  | 0.127 | 3.73e-05 | 294000
5 | clone 2.1 Fab L_10 (affinity ladder) (Fab, V domains shown) VH: EVQLQESGPGLVKPSQTLSLTCSVTGDSITSGYWNWIRKFPGNKLEYMGYISYSGSTYYNPSLKSRVSITRDTSKNQHYLQLNSVTTEDTATYYCGRDFDVWGAGTTVTVSS VL: DIVMTQSQKFMSTSVGDRVSVTCKASQNVGTNVAWYQQKPGQSPKALIYSASYRYSGVPDRFTGSGSGTDFTLTISNVQSEDLAEYFCQQYKSYPLTFGSGTKLEIK |  | 1.21 | 0.000462 | 381000
6 | clone 2.1 Fab L_11 (affinity ladder) (Fab, V domains shown) VH: EVQLQESGPSLVKPSQTLSLTCSVTGDSITSGYWNWIRKFPGNKLEYMGYISYSGSTYYNPSLKSRISITRDTSTNQYYLQLNSVTTEDTATYFCARDFDVWGAGTTVTVSS VL: DIVMTQSQKFMSTSVGDRVSVTCKASQNVGTNVGWYQQKPGQSPKALIYSASYRYSGVPDRFTGSGSGTDFTLTISNVQSEDLAEYFCQQYNSYPLTFGSGTKLEIK |  | 1.83 | 0.00011 | 59800
7 | clone 2.1 Fab TA_1 (Fab, V domains shown) VH: EVQLQESGPSLVKPSQTLSLTCSVTGDSITSGYWNWIRKFPGNRLEYMGYISFSGSTYYNPSLKSRISITRDTSKNQYYLQLNSVTTEDTATYYCARDFDVWGAGTTVTVSS VL: DIVMTQSQKFMSTSVGDRVSVTCKASQNVGTNVGWYQQKPGQSPKALIYSASYRYSGVPDRFTGSGSGTDFTLTISNVQSEDLAEYFCQQYNSYPLTFGSGTKLEIK |  | 2.84 | 0.000359 | 126000
8 | clone 2.1 Fab TA_2 (Fab, V domains shown) VH: EVQLQESGPSLVKPSQTLSLTCSVTGDSITSGYWNWIRKFPGNKLEYMGYISYSGSTYYNPSLKSRISITRDTSKNQYYLQLNSVTTEDTATYYCARDFDVWGAGTTVTVSS VL: DIVMTQSQKFMSTSVGDRVSVTCKASQNVGTNVGWYQQKPGQSPKALIYSASYRYSGVPDRFTGSGSGTDFTLTISNVQSEDLAEYFCQQYNSYPLTFGSGTKLEIK |  | 4.21 | 0.000383 | 90900
9 | clone 2.1 Fab TA_3 (Fab, V domains shown) VH: EVQLQESGPSLVKPSQTLSLTCSVTGDSITSGYWNWIRKFPGNKLEYMGYISYSGSTYYNPSLKSRISITRDTSKNQYYLQLNSVTTEDTATYYCARDFDVWGAGTTVTVSS VL: DIVMTQSQKFMSTSVGDRVSVTCKASQNVGTNVVWYQQKPGQSPKALIYSASYRYSGVPDRFTGSGSGTDFTLTISNVQSEDLAEYFCQQYNSYPLTFGSGTKLEIK |  | 54 | 0.00767 | 142000
10 | clone 2.1 Fab TA_4 (Fab, V domains shown) VH: EVQLQESGPSLVKPSQTLSLTCSVTGDSITSGYWNWIRKFPGNKLEYMGYISYSGSTYYNPSLKSRISITRDTSKNQYYLQLNSVTTEDTATYYCARDFDVWGAGTTVTVSS VL: DIVMTQSQKFMSTSVGDRVSVTCKASQNVGTNVVWYQQKPGQSPKALIYSASYRYSGVPDRFTGSGSGTDFTLTISNVQSEDLAEYFCQQYDSYPLTFGSGTKLEIK |  | 71.1 | 0.00792 | 111000

From paper PMC13360575
